Source: patent US20050015820A1

Key:
[1] = biological target: melanocortin 3 receptor (MC3-R) (mouse) (UniProt P33033); assay: cell-based or functional assay
[2] = biological target: µ opioid receptor (MOP-R) (mouse) (UniProt P42866); assay: cell-based or functional assay
Sequence of µ opioid receptor (MOP-R) (mouse) (P42866 whole entry): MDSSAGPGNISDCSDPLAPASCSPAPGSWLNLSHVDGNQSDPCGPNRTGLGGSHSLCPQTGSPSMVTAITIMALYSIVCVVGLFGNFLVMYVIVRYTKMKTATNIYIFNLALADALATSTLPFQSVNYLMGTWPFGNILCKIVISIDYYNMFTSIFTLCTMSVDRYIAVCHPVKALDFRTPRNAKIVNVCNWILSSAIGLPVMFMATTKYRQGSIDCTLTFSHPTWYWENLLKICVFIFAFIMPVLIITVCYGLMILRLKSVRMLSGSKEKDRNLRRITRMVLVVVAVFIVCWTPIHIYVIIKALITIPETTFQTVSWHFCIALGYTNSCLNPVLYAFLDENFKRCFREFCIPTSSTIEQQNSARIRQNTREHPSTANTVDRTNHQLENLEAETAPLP

Sequence of melanocortin 3 receptor (MC3-R) (mouse) (P33033 whole entry): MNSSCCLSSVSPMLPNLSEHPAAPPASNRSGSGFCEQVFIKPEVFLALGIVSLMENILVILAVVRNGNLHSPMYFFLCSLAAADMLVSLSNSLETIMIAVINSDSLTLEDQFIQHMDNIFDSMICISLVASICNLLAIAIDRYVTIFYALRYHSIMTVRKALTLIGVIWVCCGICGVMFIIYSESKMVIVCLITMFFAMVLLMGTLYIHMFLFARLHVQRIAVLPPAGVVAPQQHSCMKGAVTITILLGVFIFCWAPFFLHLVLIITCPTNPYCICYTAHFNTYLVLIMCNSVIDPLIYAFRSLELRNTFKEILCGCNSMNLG

| hyperpolarization of POMC neurons (7 nM, 9 of 15 neurons) [1] [mV] | increase of the frequency of GABAergic IPSCs recorded from POMC neurons (7 nM, 3 of 4 neurons) [1] [%] | hyperpolarization of the membrane potential of POMC cells (Met-Enk 30 µM, whole cell recording, n=10) [2] [mV] | Substance |
| --- | --- | --- | --- |
| -5.5 | 280 | – | D-Trp^8-γMSH (peptide) |
| – | – | 10 to 20 | met-enkephalin (from UniProt P01210 100-104) (peptide) |
